# Assay results: publication doi:10.1101/2022.11.10.516004 (bioRxiv, 2022)
# Molecular target: the molecule itself
# Experiment: NMR titration
protein,measurement,value
"TDP-43 C-terminal domain (CTD), wild type (domain or fragment, human, UniProt Q13148 267-414, looked up) NRQLERSGRFGGNPGGFGNQGGFGNSRGGGAGLGNNQGSNMGGGMNFGAFSINPAMMAAAQAALQSSWGMMGMLASQQNQSGPSGNNQNQGNMQREPNQAFGSGNNSYSGSNSGAAIGWGSASNAGSGSGFNGGFGSSMDSKSSGWGM",binding result,binds
